According to PMC10011503, “A novel compound targets the feline infectious peritonitis virus nucleocapsid protein and inhibits viral replication in cell culture” (The Journal of Biological Chemistry, 2023):

Assays:
FCoV N [1] = molecular target: T1, FCoV N (Feline infectious peritonitis virus (strain 79-1146), UniProt P25909); experiment: biolayer interferometry, His-tagged N immobilized on Ni-NTA biosensor; assay type: binding; conditions: read-out: Kd ± SD
Excerpt: biolayer interferometry, His-tagged N immobilized on Ni-NTA biosensor on FCoV N

FCoV N [2] = molecular target: T1, FCoV N; experiment: filter binding, Lineweaver-Burk secondary plot, N with radiolabeled vRNA […]' NCR
FCoV N [3] = molecular target: T1, FCoV N; experiment: biolayer interferometry, inhibition of N binding to immobilized biotinylated vRNA […]' NCR
[4] = molecular target: T2, FCoV nucleocapsid protein N (Feline alphacoronavirus (FCoV/FIPV) …, UniProt P25909 1-377); experiment: filter binding; 320 mM NaCl; Filter binding: 40 mM Tris-HCl pH 7.4, 80 mM NaCl (160, 320 in series), 20 mM KCl, 1 mM DTT, room temperature, 30-45 min; BLI: 20 mM Tris-HCl pH 7.4, 80 mM NaCl, 20 mM KCl, 1 mM DTT, room temperature; conditions: protein: recombinant; tags: C-terminal His (pET-30a(+), NdeI/HindIII); chain copies: 2; label: [alpha-32P]GTP, internal
T2 sequence: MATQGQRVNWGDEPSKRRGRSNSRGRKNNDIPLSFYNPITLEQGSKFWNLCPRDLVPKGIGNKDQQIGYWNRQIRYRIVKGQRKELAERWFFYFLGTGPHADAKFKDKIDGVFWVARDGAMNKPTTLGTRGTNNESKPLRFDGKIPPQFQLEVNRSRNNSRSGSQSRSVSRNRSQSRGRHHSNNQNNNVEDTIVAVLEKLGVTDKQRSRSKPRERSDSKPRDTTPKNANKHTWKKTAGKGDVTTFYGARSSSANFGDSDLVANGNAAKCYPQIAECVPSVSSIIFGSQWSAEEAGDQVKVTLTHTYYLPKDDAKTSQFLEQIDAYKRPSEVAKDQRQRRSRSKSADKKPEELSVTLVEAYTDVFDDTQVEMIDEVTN

[5] = molecular target: T2, FCoV nucleocapsid protein N; experiment: filter binding; 80 mM NaCl; Filter binding: 40 mM Tris-HCl pH 7.4, 80 mM NaCl (160, 320 in series), 20 mM KCl, 1 mM DTT, room temperature, 30-45 min; BLI: 20 mM Tris-HCl pH 7.4, 80 mM NaCl, 20 mM KCl, 1 mM DTT, room temperature; conditions: protein: recombinant; tags: C-terminal His (pET-30a(+), NdeI/HindIII); chain copies: 2; label: [alpha-32P]GTP, internal
[6] = molecular target: T2, FCoV nucleocapsid protein N; experiment: filter binding; 160 mM NaCl; Filter binding: 40 mM Tris-HCl pH 7.4, 80 mM NaCl (160, 320 in series), 20 mM KCl, 1 mM DTT, room temperature, 30-45 min; BLI: 20 mM Tris-HCl pH 7.4, 80 mM NaCl, 20 mM KCl, 1 mM DTT, room temperature; conditions: protein: recombinant; tags: C-terminal His (pET-30a(+), NdeI/HindIII); chain copies: 2; label: [alpha-32P]GTP, internal
[7] = molecular target: T2, FCoV nucleocapsid protein N; experiment: BLI; 80 mM NaCl; kass 3.195e5 M-1s-1, kdis 5.931e-3 s-1; Filter binding: 40 mM Tris-HCl pH 7.4, 80 mM NaCl (160, 320 in series), 20 mM KCl, 1 mM DTT, room temperature, 30-45 min; BLI: 20 mM Tris-HCl pH 7.4, 80 mM NaCl, 20 mM KCl, 1 mM DTT, room temperature; conditions: protein: recombinant; tags: C-terminal His (pET-30a(+), NdeI/HindIII); chain copies: 2

`O=C(O)c1cccc2c1NC(c1cccc(Br)c1)C1CC=CC21` (stereo not shown) [K31, 4-(3-Bromophenyl)-3a,4,5,9b-tetrahydro-3H-cycloppenta [c] quinoline-6-carboxylix acid] was tested, and the Kd (FCoV N [1]) was 350 ± 17 nM, the Ki (FCoV N [2]) was about 246 nM and the IC50 (FCoV N [3]) was about 850 nM.

Molecule ACUUUUAAAGUAAAGUGAGUGUAGCGUGGCUAUAAC (ssRNA) [vRNA 5' NCR (36 nt, radiolabeled)] has a Kd [4] of 35 ± 7 nM, a Kd [5] of 29 ± 1.6 nM and a Kd [6] of 30.7 ± 7.5 nM.

ACUUUUAAAGUAAAGUGAGUGUAGCGUGGCUAUAAC (ssRNA) [vRNA 5' NCR (36 nt, biotinylated)] was tested, and the Kd [7] was 18 ± 1.8 nM.
